Results on one substance are retold here after publication PMC5431456.

In experiment [1] the target is SubB S106A/T107A (Escherichia coli) (UniProt Q6EZC3). The experiment can be described thus: SPR. (Surface plasmon resonance follows binding to a sensor surface in real time, without labels.)
Experiment [2] has as its target SubB ΔS106/ΔT107 (Escherichia coli) (UniProt Q6EZC3). Put plainly: SPR.
In experiment [3] the target is SubB ΔS106/ΔT107/E108D (Escherichia coli) (UniProt Q6EZC3). The experiment can be described thus: SPR.
Experiment [4] addresses Subtilase cytotoxin B subunit (SubB), wild type (Escherichia coli) (UniProt Q6EZC3). The experiment can be described thus: SPR; Biacore T100; SubB or SubB mutant immobilised on a series S CM5 chip (flow cell 1 blank); AGP flowed over, 0.01-100 µM in range finding; single cycle kinetics.

The term Kd denotes a measure of binding affinity in units of concentration. Higher therefore signals a looser complex. For “human α1-acid glycoprotein (AGP) (from UniProt P02763 19-201) (natural protein)”, the Kd is 0.723 µM in experiment [1], 1.65 µM in experiment [2], 2.82 µM in experiment [3] and 2.12 µM in experiment [4].
